Target: D-tagatose 3-epimerase from Rhodobacter sphaeroides (Rhodobacter sphaeroides)
Experiment: SEC; Superdex200 10/300 GL, 20 mM Tris-HCl pH 8.0, 100 mM NaCl, 1 mM dithiothreitol; 50 ug of purified RsDTE; six standard protein markers (6.5-158 kDa) for calibration

stoichiometry N: 4
Substance: D-tagatose 3-epimerase from Rhodobacter sphaeroides (enzyme)
